Reference: the DeepSol protein solubility set

Assay: soluble on expression in E. coli; label from the status in PepcDB or PDB records

Sequence | soluble on expression in E. coli
MIQRLLNEENLLIGISELSEIAEVSPRQLRYWEEKGYISSIAKDANGPRKYRLHTVVKVHWIKRFLDEGYTLQSAVEKAEEQHRNVGMTKKIFSQMFHGISEVCPNYVAIDLGDFDEEQKLYVVFNETTEVSEYLLIPKDADVSDELKKRK | not soluble
MKGYQSLVFNFFFLKLSAENESTPIQQLLEHFLRQLQRKDPHGFFAFPVTDAIAPGYSMIIKHPMDFGTMKDKIVANEYKSVTEFKADFKLMCDNAMTYNRPDTVYYKLAKKILHAGFKMMSKERLLALKRSMSFMQDMDFSQQAALLGNEDTAVEEPVPEVVPVQVETAKKSKKPSREVISCMFEPEGNACSLTDSTAEEHVLALVEHAADEARDRINRFLPGGKMGYLKRNGDGSLLYSVVNTAEPDADEEETHPVDLSSLSSKLLPGFTTLGFKDERRNKVTFLSSATTALSMQNNSVFGDLKSDEMELLYSAYGDETGVQCALSLQEFVKDAGSYSKKVVDDLLDQITGGDHSRTLFQLKQRRNVPMKPPDEAKVGDTLGDSSSSVLEFMSMKSYPDVSVDISMLSSLGKVKKELDPDDSHLNLDETTKLLQDLHEAQAERGGSRPSSNLSSLSNASERDQHHLGSPSRLSVGEQPDVTHDPYEFLQSPEPAASAKT | soluble
VQREDGSWLLDGLIAVPELKDTLGLRAVPEEEKGVYHTLSGMIMWLLGRLPQTGDITFWENWRLEVIDMDSKRIDKVLATKIDNQPTEDPKPVA | soluble
MAGISLLLDQAFHRHFADFFTLRSVDNRVLLNLASPRHQLAKQSLVLLAKCCFLFHLSVSISNFPTVYPTRSTIDRFKRIFPHSPRVNADLSSSSWQTSRRNYCDHALEEYVDKIFVDEAVNELQTIQDILRWSVSRFSAANIWYGHGTDNPWDEAVQLVLPSLYLPLDIPEDMRTARLTSSEKHRIVERVIRRVNERIPVAYLTNKAWFCGHEFYVDERVLVPRSPIGELINNKFAGLISKQPQHILDMCTGSGCIAIACAYAFPEAEVDAVDISPDALAVAEQNIEEHGLIHNVIPIRSDLFRDLPKVQYDLIVTNPPYVDAEDMSDLPNEYRHEPELGLASGTDGLKLTRRILGNAADYLADDGVLICEVGNSMVHLMEQYPDVPFTWLEFDNGGDGVFMLTKEQLIAAREHFAIYKD | not soluble
LLVVGPKFIRANQEYTLVISNFNSQLSKVDLLLKLEGETDNGLSVLNVTKMVDVRRNMNRMINFNMPEDLTAGNYKITIDGQRGFSFHKEAELVYLSKSISGLIQVDKPVFKPGDTVNFRVIVLDTELKPPARVKSVYVTIRDPQRNVIRKWSTAKLYAGVFESDLQIAPTPMLGVWNISVEVEGEELVSKTFEVKEYVLSTFDVQVMPSVIPLEEHQAVNLTIEANYHFGKPVQGVAKVELYLDDDKLKLKKELTVYGKGQVELRFDNFAMDADQQDVPVKVSFVEQYTNRTVVKQSQITVYRYAYRVELIKESPQFRPGLPFKCALQFTHHDGTPAKGISGKVEVSDVRFETTTTSDNDGLIKLELQPSEGTEQLSIHFNAVDGFFFYEDVNKVETVTDAYIKLELKSPIKRNKLMRFMVTCTERMTFFVYYVMSKGNIIDAGFMRPNKQPKYLLQLNATEKMIPRAKILIATVAGRTVVYDFADLAFQELRNNFDLSIDEQEIKPGRQIELSMSGRPGAYVGLAAYDKALLLFNKNHDLFWEDIGQVFDGFHAINENEFDIFHSLGLFARTLDDILFDSANEKTGRNALQSGKPIGKLVSYRTNFQESWLWKNVSIGRSGSRKLIEVVPDTTTSWYLTGFSIDPVYGLGIIKKPIQFTTVQPFYIVENLPYSIKRGEAVVLQFTLFNNLGAEYIADVTLYNVANQTEFVGRPNTDLSYTKSVSVPPKVGVPISFLIKARKLGEMAVRVKASIMLGHETDALEKVIRVMPESLVQPRMDTRFFCFDDHKNQTFPINLDINKKADSGSTKIEFRLNPNLLTTVIKNLDHLLGVPTGCGEQNMVKFVPNILVLDYLHAIGSKEQHLIDKATNLLRQGYQNQMRYRQTDGSFGLWETTNGSVFLTAFVGTSMQTAVKYISDIDAAMVEKALDWLASKQHFSGRFDKAGAEYHKEMQGGLRNGVALTSYVLMALLENDIAKAKHAEVIQKGMTYLSNQFGSINNAYDLSIATYAMMLNGHTMKEEALNKLIDMSFIDADKNERFWNTTNPIETTAYALLSFVMAEKYTDGIPVMNWLVNQRYVTGSFPSTQDTFVGLKALTKMAEKISPSRNDYTVQLKYKKSAKYFKINSEQIDVENFVDIPEDTKKLEINVGGIGFGLLEVVYQFNLNLVNFENRFQLDLEKQNTGSDYELRLKVCASYIPQLTDRRSNMALIEVTLPSGYVVDRNPISEQTKVNPIQKTEIRYGGTSVVLYYDNMGSERNCFTLTAYRRFKVALKRPAYVVVYDYYNTNLNAIKVYEVDKQNLCEICDEEDCPAECGGHHHHHH | soluble
